The source of these data is article PMC7072583, “Intracellular Delivery of DNA and Protein by a Novel Cell-Permeable Peptide Derived from DOT1L” (Biomolecules, 2020).

Ends that are not written are not given here. * marks the point of attachment. FITC = O=C1OC2(c3ccc(O)cc3Oc3cc(O)ccc32)c2ccc(NC(=S)*)cc21; Acp = not defined here

The subject of data set [1] is MCF7 cells. The data set is described as follows: MTT cytotoxicity assay. Type of data set: cell-based, human. The note with it: MCF7, range of peptide concentrations, 24 h and 48 h, n = 3, p > 0.05. The protocol:
(§1) HSC-T6 and MCF7 cells were seeded at a density of 8000 cells/well in 96-well culture plates overnight before incubation. The cells were washed with PBS and were treated with Dot1l or Dot1l/pDNA complexes of different concentrations at the indicated times. After rinsing with PBS, 20 μL of 5 mg/mL MTT in PBS solution were added to 80 μL of serum-free media and incubated for 4 h. After that, the culture medium was discarded and 150 μL of dimethyl sulfoxide (DMSO) were added into each well to dissolve the formazan crystals. The absorbance of DMSO-dissolved solution was read in a Multiskan Spectrum (Thermo Fisher Scientific, Waltham, MA, USA) reader at 490 nm.
A general note: Tetrazolium dyes change colour on reduction, which living cells bring about.

Data set [2] has as its system HSC-T6 cells. The data set is described as follows: MTT cytotoxicity assay. Type of data set: cell-based, rat. The note with it: HSC-T6, range of peptide concentrations, 24 h and 48 h, n = 3, p > 0.05. On the procedure: as §1
A short description of data set [3]: Flow cytometry analysis of cell cycle and cell apoptosis. Format: cell-based. The note with it: 10 μM peptide. On the procedure: Cells and Dot1l peptide (10 μM), following the same method as described before, were plated with treatment in a six-well plate format. Cells were then harvested and pelleted in washing steps with PBS three times by centrifuging for 5 min at 1023 rpm. The supernatant was removed, and cells were resuspended in PBS. Cells were then fixed in 70% cold ethanol in PBS for 30 min. After washing three times with PBS, the fixed cells were stained with 0.5 mL PI/RNase A solution or with the Annexin-V/PI Apoptosis Detection Kit (Elabscience, Wuhan, China), following the recommended methods. Quantification of cell cycle states or cell apoptosis was acquired by fluorescence of each sample in BD FACSVerse™ flow cytometer.

For data set [4], the system named is MCF7 cells. As to the kind of experiment: Lactate dehydrogenase leakage assay. Format: cell-based, human. The note with it: MCF7, different concentrations, 1 h; Supplementary Figure S4A. On the procedure: (§2) Lactate dehydrogenase (LDH) assay was conducted to measure the release of lactate dehydrogenase from damaged cells. Cells were seeded at a density of 1.5 × 10^5 cells/well to 24-well plates for overnight culture and peptides at indicated concentrations were added as described above. After 1 h incubation, 50 μL of cell-free supernatant were collected and added to each well, including controls and cell-free wells filled with 50 μL of LDH assay buffer. Reaction was conducted at room temperature (RT) for 10 min according to the manufacturer’s recommendations and the Optical Density (OD) was read in a Multiskan Spectrum (Thermo Fisher Scientific) plate reader at 570 nm.

Data set [5] has as its system MCF7 and HSC-T6 cells. The data set is described as follows: Comparison of penetration efficiency of different CPPs. Type of data set: cell-based, human, rat. The note with it: Supplementary Figure S2D. The protocol:
(§3) All types of cells were suspended in 0.5 mL media and seeded at a density of 1.5 × 10^5 cells/well on a 24-well plate for 24 h. After washing with PBS twice, the indicated cells were incubated with indicated concentrations of FITC-CPP-Dot1l, FITC-NCO peptides, or purified protein in 0.5 mL serum-free media/well for 1 h. After incubation, cells were rinsed three times in PBS and then imaged by fluorescence microscopy (Nikon, Tokyo, Japan). To evaluate the cellular uptake efficiency of indicated treatment, the cellular uptake of indicated concentration of CPP was quantified with multimode spectrophotometry (Tecan, Mannedorf, Switzerland). The incubation and wash procedure were the same as above. Cells were then lysed with 0.3 mL/well lysing buffer (0.1 M NaOH) for 10 min and centrifuged at 14,000 rpm for 5 min. The fluorescence intensity in the supernatant was read using Multimode spectrophotometry (Tecan, Mannedorf, Switzerland) at 485 nm excitation and emission at 535 nm. Protein concentration of supernatant was examined by the Bradford protein assay kit following the manufacturer’s recommendation. The fluorescence of cellular uptake is expressed as fluorescence intensity per mg of total cellular protein. Experiments indicated in the text were repeated at least three times.

Data set [6] deals with MCF7 cells. Type of data set: cell-based, human. On the procedure:
as §3

Data set [7] deals with MCF7, B16, HSC-T6, Caski, and HepG2. The data set is described as follows: Cellular uptake of FITC-labeled Dot1l peptide in different cell lines. Format: cell-based, human, mouse, rat. On the procedure: as §3
Data set [8] concerns red blood cells (RBC). The data set is described as follows: Hemolysis assay. Format: cell-based. The note with it: 2.5-10 µM, 2 h, absorbance 450 nm, 0.1% Triton X-100 positive control, n = 3, p > 0.05 vs NC. On the procedure:
To examine the membrane integrity, red blood cells (RBC) were used to conduct hemolytic analysis. After separation of RBCs by centrifugation for 10 min at 500 rpm, RBCs were collected and carefully washed with PBS. A 20% v/v RBC suspension was used for further experiments. In a typical experiment, 25 μL of RBC suspension were added to 225 μL peptide dilutions at different concentrations. Following 2 h of incubation, samples were centrifuged (500 rpm, 5 min) to discard cells and the membrane fragment. Supernatant samples (50-μL aliquots) were transferred to a clear 96-well plate and hemoglobin absorbance was read at 450 nm. Experimental design contains negative controls and positive controls (RBCs treated with 0.1% Triton X-100).

For data set [9], the system named is MCF7 cells. As to the kind of experiment: Uptake mechanism: temperature and endocytosis inhibitors. Type of data set: cell-based, human. The protocol:
as §3
The uptake mechanism of Dot1l in MCF7 cells was examined through endocytosis inhibitors. Peptide incubation at indicated different temperatures was measured to investigate the influence of temperature on peptide internalization (physical means of inhibition of endocytosis). […] The uptake efficiency was detected using the same protocol as the one shown above.

Data set [10] has as its system HSC-T6 cells. As to the kind of experiment: Lactate dehydrogenase leakage assay. Format: cell-based, rat. The note with it: HSC-T6, 2.5-10 µM, 1 h, 0.1% TritonX-100 positive control, n = 3, p > 0.05 vs NC. On the procedure:
as §2

Take “FITC-(Acp)-KARKKKLNKKGRKMAGRKRGRPKK ({FITC-Acp}-KARKKKLNKKGRKMAGRKRGRPKK; reading uncertain) [Dot1l, FITC-labeled 24-residue arginine-rich cell-penetrating peptide derived from human Dot1l protein]”: in data set [1], the “Inhibition of cell growth (MTT)” value was “no significant inhibition”. Also, in [2], the “Inhibition of cell growth (MTT)” value is “no significant inhibition”. Further, in [3] (Annexin-V/PI), the “Cell apoptosis, control vs peptide treatment” value is on record as “did not show significant differences”. Moreover, the “Cell cycle, control vs peptide treatment” value in data set [3] (PI/RNase A staining) was “did not show significant differences”. The “Membrane disturbance (LDH release)” value in data set [4] was “no membrane disturbance”. The “Penetration efficiency compared with other CPPs” value in data set [5] was “weaker than hPP10, but significantly higher than that of TAT and MT23”. Also, in [6], the “Fluorescence signal after trypan blue quenching of cell periphery signal” value is recorded as “the fluorescence signal persisted”, the “Intracellular fluorescence signal with 5% DMSO pretreatment” value was “highly increased” and the “Penetration efficiency with longer incubation time” value is “not promoted”. Moreover, in data set [7] (5% DMSO pretreatment, Supplementary Figure S1C), the “Penetration in different cell lines after 5% DMSO pretreatment” value was “significantly increased”. Also, the “Penetration in different cell lines” value in data set [7] (MCF7, B16, HSC-T6, Caski, HepG2, non-DMSO pretreatment condition) is “could penetrate into all different cell lines efficiently without apparent cell line specificity”. Besides, in data set [8], the “Membrane disturbance (hemolysis)” value is recorded as “no membrane disturbance”. In data set [9] (MCF7, 5 μM wartmannin (PI-3 kinase blocking agent)), the “Internalization with wartmannin compared with control” value is “no significant differences”. Also, the “Internalization with sodium azide” value in data set [9] (MCF7, 40 µM sodium azide (oxidative phosphorylation inhibitor)) was “not blocked”. Besides, in [9] (MCF7, 50 μg/mL heparin (HSPG competitor)), the Uptake with heparin result is listed as “could not block Dot1l uptake efficiently”. Also, in data set [9] (MCF7, 5 mM MβCD (lipid raft-mediated endocytosis inhibitor)), the “Internalization with MβCD compared with control” value is “no significant differences”. Besides, in [9] (MCF7, 50 mM ammonium chloride (anti-acidification agent of endocytic vesicles)), the “Internalization with ammonium chloride” value is reported as “not blocked”. In addition, in data set [9] (MCF7, 450 mM sucrose (clathrin-dependent endocytosis inhibitor)), the “Internalization with hyperosmotic sucrose compared with control” value is on record as “no significant differences”. In data set [9] (MCF7, means ± SEM (n = 3)), the “Fluorescence intensity at 37 °C compared with 4 °C” value was “no apparent differences” and the “Fluorescence intensity at 37 °C compared with 25 °C” value is “significantly higher”. In addition, in data set [9] (MCF7, serum (10% FBS)), the “Internalization in the presence of serum containing incubation medium” value is on record as “blocked”. For the same substance, the “Membrane disturbance (LDH release)” value in [10] is listed as “no membrane disturbance”.
